In the RNAGym collection of RNA variant scans (doi:10.7554/elife.80360):

B1: Hairpin Ribozyme (parent)
chain: GUCCUCUUUCACGUGCGCGUGAAAGAGAGAAGUGAACCAGAGAAACACACGUUGUGGUAUAUUACCUGGUA

Variants of: B1
Test: self-cleavage, relative activity (ratio to wild type); higher = more cleavage; co-transcriptional

Question: Which self-cleavage does the source give for U5C G32C here?
Answer: 0.0586

Question: With C6A C10U as the variant, how does the self-cleavage read?
Answer: 0.371

Question: Which self-cleavage does the source give for C4U U9A here?
Answer: 0.202

Question: For C6A U53A, which self-cleavage is on record?
Answer: 0.456

Question: Which self-cleavage does the source give for C6A U53C here?
Answer: 0.517

Question: Which self-cleavage does the source give for U5A A44U here?
Answer: 0.125

Question: With U5A U58G as the variant, how does the self-cleavage read?
Answer: 0.251

Question: With U5C G29U as the variant, how does the self-cleavage read?
Answer: 0.114

Question: With U5C G29C as the variant, how does the self-cleavage read?
Answer: 0.205

Question: With U5C C6A as the variant, how does the self-cleavage read?
Answer: 0.393

Question: With C6A A28C as the variant, how does the self-cleavage read?
Answer: 0.233

Question: For U5A A11G, which self-cleavage is on record?
Answer: 0.324

Question: For C4U U52A, which self-cleavage is on record?
Answer: 0.295

Question: For C6G A26U, which self-cleavage is on record?
Answer: 0.198

Question: With C6G A26G as the variant, how does the self-cleavage read?
Answer: 0.203

Question: With C6A G15U as the variant, how does the self-cleavage read?
Answer: 0.582

Question: For C6A G15C, which self-cleavage is on record?
Answer: 0.586

Question: Which self-cleavage does the source give for C6G A30U here?
Answer: 0.105

Question: Which self-cleavage does the source give for C4U G25C here?
Answer: 0.11

Question: Which self-cleavage does the source give for C4U G25U here?
Answer: 0.126

Question: Which self-cleavage does the source give for U5C A47G here?
Answer: 0.332

Question: Which self-cleavage does the source give for C4U U70G here?
Answer: 0.214

Question: Which self-cleavage does the source give for U5C A44G here?
Answer: 0.147

Question: For U5A U7C, which self-cleavage is on record?
Answer: 0.107

Question: Which self-cleavage does the source give for U5A U7A here?
Answer: 0.105

Question: With U5C G13U as the variant, how does the self-cleavage read?
Answer: 0.579

Question: Which self-cleavage does the source give for U5C G13A here?
Answer: 0.591

Question: Which self-cleavage does the source give for U5A U67G here?
Answer: 0.112

Question: With C6A C16G as the variant, how does the self-cleavage read?
Answer: 0.351

Question: Which self-cleavage does the source give for C6A C16U here?
Answer: 0.659

Question: Which self-cleavage does the source give for C6A A24C here?
Answer: 0.445

Question: For C4U A47G, which self-cleavage is on record?
Answer: 0.0924

Question: With U5A C18U as the variant, how does the self-cleavage read?
Answer: 0.554

Question: Which self-cleavage does the source give for C6G A31G here?
Answer: 0.355

Question: Which self-cleavage does the source give for C6A G13C here?
Answer: 0.341

Question: With C6A U7G as the variant, how does the self-cleavage read?
Answer: 0.447

Question: Which self-cleavage does the source give for C6A U7A here?
Answer: 0.648

Question: For U5A U62A, which self-cleavage is on record?
Answer: 0.139

Question: Which self-cleavage does the source give for U5A U62C here?
Answer: 0.224

Question: Which self-cleavage does the source give for C4U G34C here?
Answer: 1.03

Question: With C4U G34U as the variant, how does the self-cleavage read?
Answer: 1.12

Question: With C6A U20C as the variant, how does the self-cleavage read?
Answer: 0.556

Question: With C6A U20A as the variant, how does the self-cleavage read?
Answer: 0.551

Question: Which self-cleavage does the source give for U5A G51U here?
Answer: 0.389

Question: With U5A G51C as the variant, how does the self-cleavage read?
Answer: 0.324

Question: With U5A U14A as the variant, how does the self-cleavage read?
Answer: 0.164

Question: With C6A A41U as the variant, how does the self-cleavage read?
Answer: 0.919

Question: With C6A A41C as the variant, how does the self-cleavage read?
Answer: 0.873

Question: With U5G U20C as the variant, how does the self-cleavage read?
Answer: 0.337

Question: With C6G A22G as the variant, how does the self-cleavage read?
Answer: 0.52

Question: For C6G A22U, which self-cleavage is on record?
Answer: 0.377

Question: Which self-cleavage does the source give for U5C A43U here?
Answer: 0.0569

Question: Which self-cleavage does the source give for U5C A43C here?
Answer: 0.193

Question: With U5G A49G as the variant, how does the self-cleavage read?
Answer: 0.109

Question: With U5G A49C as the variant, how does the self-cleavage read?
Answer: 0.205

Question: For C6A A23C, which self-cleavage is on record?
Answer: 0.52

Question: Which self-cleavage does the source give for C6A A23U here?
Answer: 0.503

Question: With C6A U67A as the variant, how does the self-cleavage read?
Answer: 0.144

Question: With U5G A45C as the variant, how does the self-cleavage read?
Answer: 0.122

Question: Which self-cleavage does the source give for U5G A45U here?
Answer: 0.0709

Question: For U5G A36U, which self-cleavage is on record?
Answer: 0.0604

Question: Which self-cleavage does the source give for U5G U67G here?
Answer: 0.164

Question: With U5C A41C as the variant, how does the self-cleavage read?
Answer: 0.734

Question: Which self-cleavage does the source give for U5A U9A here?
Answer: 0.371

Question: Which self-cleavage does the source give for U5A U9G here?
Answer: 0.231

Question: With C6A A45U as the variant, how does the self-cleavage read?
Answer: 0.179

Question: Which self-cleavage does the source give for U5C C38G here?
Answer: 0.115

Question: Which self-cleavage does the source give for U5G A47C here?
Answer: 0.102

Question: Which self-cleavage does the source give for C4U C12G here?
Answer: 0.259

Question: For U5G G27U, which self-cleavage is on record?
Answer: 0.0644

Question: For U5G G27A, which self-cleavage is on record?
Answer: 0.216

Question: Which self-cleavage does the source give for C6A U60C here?
Answer: 0.793

Question: For C6A U60G, which self-cleavage is on record?
Answer: 0.4

Question: Which self-cleavage does the source give for U5C A31U here?
Answer: 0.0715

Question: With U5C A31C as the variant, how does the self-cleavage read?
Answer: 0.0543

Question: Which self-cleavage does the source give for U5C A31G here?
Answer: 0.391

Question: Which self-cleavage does the source give for U5G U14C here?
Answer: 0.383

Question: For U5G U14G, which self-cleavage is on record?
Answer: 0.152

Question: For U5G U14A, which self-cleavage is on record?
Answer: 0.204

Question: For U5C A30U, which self-cleavage is on record?
Answer: 0.11

Question: Which self-cleavage does the source give for C4U U63A here?
Answer: 0.157

Question: With C4U U63C as the variant, how does the self-cleavage read?
Answer: 0.191

Question: Which self-cleavage does the source give for C6A G27A here?
Answer: 0.126

Question: Which self-cleavage does the source give for C6A G27U here?
Answer: 0.121

Question: For U5G A71U, which self-cleavage is on record?
Answer: 0.306

Question: Which self-cleavage does the source give for U5A G25A here?
Answer: 0.106

Question: Which self-cleavage does the source give for U5A G25C here?
Answer: 0.162

Question: Which self-cleavage does the source give for U5G G69A here?
Answer: 0.0952

Question: For U5G G69C, which self-cleavage is on record?
Answer: 0.104

Question: With U5G G69U as the variant, how does the self-cleavage read?
Answer: 0.247

Question: With U5A A24U as the variant, how does the self-cleavage read?
Answer: 0.273

Question: With C6A A71G as the variant, how does the self-cleavage read?
Answer: 0.606

Question: For C4U G68U, which self-cleavage is on record?
Answer: 0.109

Question: Which self-cleavage does the source give for C4U G56C here?
Answer: 0.214

Question: With C4U G56U as the variant, how does the self-cleavage read?
Answer: 0.126

Question: For U5C U8C, which self-cleavage is on record?
Answer: 0.313

Question: For U5C U8A, which self-cleavage is on record?
Answer: 0.197

Question: Which self-cleavage does the source give for C4U U7C here?
Answer: 0.193

Question: For U5A A71U, which self-cleavage is on record?
Answer: 0.334

Question: With U5A A71G as the variant, how does the self-cleavage read?
Answer: 0.264

Question: Which self-cleavage does the source give for U5A G29U here?
Answer: 0.0792

Question: With U5A G29A as the variant, how does the self-cleavage read?
Answer: 0.156

Question: Which self-cleavage does the source give for U5C A49G here?
Answer: 0.343

Question: For U5C A49C, which self-cleavage is on record?
Answer: 0.377

Question: For U5C U53A, which self-cleavage is on record?
Answer: 0.535

Question: With U5C U53C as the variant, how does the self-cleavage read?
Answer: 0.317

Question: With C4U C50G as the variant, how does the self-cleavage read?
Answer: 0.11

Question: For C4U G69A, which self-cleavage is on record?
Answer: 0.12

Question: Which self-cleavage does the source give for C4U G69C here?
Answer: 0.204

Question: For U5G G15C, which self-cleavage is on record?
Answer: 0.249

Question: For U5G G15U, which self-cleavage is on record?
Answer: 0.431

Question: For U5C G69C, which self-cleavage is on record?
Answer: 0.0944

Question: Which self-cleavage does the source give for U5G U62G here?
Answer: 0.145

Question: For U5C A23U, which self-cleavage is on record?
Answer: 0.461

Question: With U5G A61G as the variant, how does the self-cleavage read?
Answer: 0.0248

Question: With U5C C65G as the variant, how does the self-cleavage read?
Answer: 0.0463

Question: Which self-cleavage does the source give for C6A A49U here?
Answer: 0.162

Question: Which self-cleavage does the source give for U5A G40C here?
Answer: 0.159

Question: Which self-cleavage does the source give for C4U C37G here?
Answer: 0.147

Question: With U5G G19U as the variant, how does the self-cleavage read?
Answer: 0.274

Question: With U5G G19A as the variant, how does the self-cleavage read?
Answer: 0.243

Question: Which self-cleavage does the source give for U5A A22G here?
Answer: 0.308

Question: Which self-cleavage does the source give for U5A A22C here?
Answer: 0.339

Question: With U5G G25C as the variant, how does the self-cleavage read?
Answer: 0.214

Question: Which self-cleavage does the source give for C6A A61C here?
Answer: 0.225

Question: For C4U U55C, which self-cleavage is on record?
Answer: 0.093

Question: For C6A C46A, which self-cleavage is on record?
Answer: 0.119

Question: For C6A C46U, which self-cleavage is on record?
Answer: 0.171

Question: Which self-cleavage does the source give for C6A C65A here?
Answer: 0.492

Question: For C4U C48G, which self-cleavage is on record?
Answer: 0.123

Question: Which self-cleavage does the source give for C4U C48A here?
Answer: 0.114

Question: Which self-cleavage does the source give for U5C A71G here?
Answer: 0.389

Question: With C6A A11G as the variant, how does the self-cleavage read?
Answer: 0.635

Question: With U5C C37U as the variant, how does the self-cleavage read?
Answer: 0.348

Question: For U5C C48U, which self-cleavage is on record?
Answer: 0.0847

Question: Which self-cleavage does the source give for U5C C48G here?
Answer: 0.0712

Question: For U5G C38G, which self-cleavage is on record?
Answer: 0.133

Question: With U5G C38U as the variant, how does the self-cleavage read?
Answer: 0.195

Question: Which self-cleavage does the source give for C4U C16G here?
Answer: 0.243

Question: With C4U A64C as the variant, how does the self-cleavage read?
Answer: 0.181

Question: With C4U A64G as the variant, how does the self-cleavage read?
Answer: 0.25

Question: Which self-cleavage does the source give for U5C C46A here?
Answer: 0.139

Question: For U5C G57U, which self-cleavage is on record?
Answer: 0.138

Question: Which self-cleavage does the source give for C4U G51C here?
Answer: 0.337

Question: Which self-cleavage does the source give for C4U G15C here?
Answer: 0.232

Question: Which self-cleavage does the source give for C4U G15U here?
Answer: 0.32

Question: For C4U G15A, which self-cleavage is on record?
Answer: 0.33

Question: Which self-cleavage does the source give for C4U U33C here?
Answer: 0.237

Question: For U5C A26C, which self-cleavage is on record?
Answer: 0.497

Question: With C4U A43C as the variant, how does the self-cleavage read?
Answer: 0.128

Question: For U5A A36U, which self-cleavage is on record?
Answer: 0.255

Question: Which self-cleavage does the source give for C6A C48A here?
Answer: 0.084

Question: With C6A C48G as the variant, how does the self-cleavage read?
Answer: 0.121

Question: Which self-cleavage does the source give for C4U G42U here?
Answer: 0.129

Question: With U5A U60G as the variant, how does the self-cleavage read?
Answer: 0.29

Question: Which self-cleavage does the source give for U5C U63A here?
Answer: 0.104

Question: For U5G A24C, which self-cleavage is on record?
Answer: 0.273

Question: Which self-cleavage does the source give for U5G G13U here?
Answer: 0.361

Question: With U5G G13C as the variant, how does the self-cleavage read?
Answer: 0.276

Question: For U5C C12G, which self-cleavage is on record?
Answer: 0.244

Question: With U5C C12A as the variant, how does the self-cleavage read?
Answer: 0.566

Question: Which self-cleavage does the source give for U5A A43U here?
Answer: 0.188

Question: For U5C U7C, which self-cleavage is on record?
Answer: 0.303

Question: For U5A C10A, which self-cleavage is on record?
Answer: 0.188

Question: For U5A C10G, which self-cleavage is on record?
Answer: 0.129

Question: For U5G G32U, which self-cleavage is on record?
Answer: 0.132

Question: With U5G G32A as the variant, how does the self-cleavage read?
Answer: 0.0653
